Measurements taken from patent publication US20260209789A1, “TRIGGER-INDUCIBLE MRNA CIRCULARIZATION” (WESTLAKE UNIVERSITY, priority 2022, published 2026).

System: N2A, Hepa1-6 and B16-F10 cells
Test: AFP promoter-driven NanoLuc reporter and AFP qRT-PCR
Type: cell-based, murine
Conditions: AFP-deficient cell lines, 48 h
Experimental: (A) Quantification of AFP-levels using (left panel) TSP-driven reporter gene expression and (right panel) qRT-PCR. (left panel) N2A, Hepa1-6 and B16-F10 cells were co-transfected with a PMusAFP-driven NanoLuc expression vector (pSLM54) and a constitutive FLuc expression vector (pYW99). Luciferase levels were quantified at 48 h after transfection. Data presented are mean±SD of relative luciferase activity (NanoLuc/FLuc) for n=3 individual experiments. (right panel) Relative AFP expression levels in N2A, Hepa1-6 and B16-F10 cells were profiled by qRT-PCR using murine AFP-specific primers listed in Table S1 and normalized to the gene encoding murine ribosomal protein (Rplp0).
Reverse transcription-polymerase chain reaction (RT-PCR). For quantitative analysis, PCR reaction was carried out with an initial step of 95° C. for 30 s followed by 40 cycles of 95° C. for 10 s and 60° C. for 30 s on the Applied Biosystems QuantStudio 1 Real-Time PCR System (ThermoFisher Scientific) using the ChamQ Universal SYBR qPCR Master Mix (Vazyme Biotech; cat. no. Q711-02) and the primers listed in Table S1. The relative cycle threshold (CT) was determined and normalized against the expression level of endogenous human glyceraldehyde 3-phosphate dehydrogenase (GAPDH) or murine ribosomal protein (Rplp0) genes. […]

B1: PAFP: alpha-fetoprotein (AFP) promoter, model tissue-specific promoter (nucleic acid)
DNA: AGGGGAAATAATCTATTTGAACAGTTTAGATGGTGAAGAACATTTGCAGCATTTGCAAGATTTTTTTCCACTCTGAAGTGGTCTTTGTCCTTGAACATAGGATACAAGTGACCCCTGCTCTGTTAATTATTGGCAAATTGCCTAACTTCAACGTAAGGAAATAGAGTCATATGTTTGCTCACTGAAGGTTACTAGTTAACAGGCATCCCTTAAACAGGATATAAAAGGACTTCAGCAGGACTGCTCGAAACATCCCACTTCCAGCACTGCCTGCGGTGAAGGA
promoter-driven reporter gene expression (NanoLuc/FLuc): non-specific PAFP-driven reporter gene expression
